Results published in IntAct's records for PubMed 20947020.

B1: Segment polarity protein dishevelled homolog DVL-2 (Mus musculus), Q60838 (parent)
chain: MAGSSAGGGGVGETKVIYHLDEEETPYLVKIPVPAERITLGDFKSVLQRPAGAKYFFKSMDQDFGVVKEEISDDNARLPCFNGRVVSWLVSSDTPQPEVAPPAHESRTELVPPPPPLPPLPPERTSGIGDSRPPSFHPNVSSSHENLEPETETESVVSLRRDRPRRRDSSEHGAGGHRPGGPSRLERHLAGYESSSTLMTSELESTSLGDSDEDDTMSRFSSSTEQSSASRLLKRHRRRRKQRPPRMERTSSFSSVTDSTMSLNIITVTLNMEKYNFLGISIVGQSNERGDGGIYIGSIMKGGAVAADGRIEPGDMLLQVNDMNFENMSNDDAVRVLRDIVHKPGPIVLTVAKCWDPSPQAYFTLPRNEPIQPIDPAAWVSHSAALTGAFPAYPGSSSMSTITSGSSLPDGCEGRGLSVHMDMASVTKAMAAPESGLEVRDRMWLKITIPNAFLGSDVVDWLYHHVEGFPERREARKYASGLLKAGLIRHTVNKITFSEQCYYVFGDLSGGCESYLVNLSLNDNDGSSGASDQDTLAPLPGATPWPLLPTFSYQYPAPHPYSPQPPPYHELSSYTYGGGSASSQHSEGSRSSGSTRSDGGAGRTGRPEERAPESKSGSGSESELSSRGGSLRRGGEPGGTGDGGPPPSRGSTGAPPNLRALPGLHPYGAPSGMALPYNPMMVVMMPPPPPPVSTAVQPPGAPPVRDLGSVPPELTASRQSFHMAMGNPSEFFVDVM
B2: AP-2 complex subunit mu (Rattus norvegicus (Rat)), P84092 (parent)
chain: MIGGLFIYNHKGEVLISRVYRDDIGRNAVDAFRVNVIHARQQVRSPVTNIARTSFFHVKRSNIWLAAVTKQNVNAAMVFEFLYKMCDVMAAYFGKISEENIKNNFVLIYELLDEILDFGYPQNSETGALKTFITQQGIKSQHQTKEEQSQITSQVTGQIGWRREGIKYRRNELFLDVLESVNLLMSPQGQVLSAHVSGRVVMKSYLSGMPECKFGMNDKIVIEKQGKGTADETSKSGKQSIAIDDCTFHQCVRLSKFDSERSISFIPPDGEFELMRYRTTKDIILPFRVIPLVREVGRTKLEVKVVIKSNFKPSLLAQKIEVRIPTPLNTSGVQVICMKGKAKYKASENAIVWKIKRMAGMKESQISAEIELLPTNDKKKWARPPISMNFEVPFAPSGLKVRYLKVFEPKLNYSDHDVIKWVRYIGRSGIYETRC
partner: B1 chain

Variants of: B1
Details: with ap2m1_rat Ap2m1, P84092

effect of a mutation on the interaction | Variant
decreasing interaction | D441K;N451A;R489A
decreasing interaction strength | K446A
decreasing interaction strength | K446M
decreasing interaction | D441K
decreasing interaction | D441K;R489A
disrupting interaction | Y561A
decreasing interaction | D441K;N451A
decreasing interaction | N451A
decreasing interaction | R489A

Variants of: B1
Details: with ap2b1_bovin AP2B1, P63009
ap2b1_bovin AP2B1, P63009, sequence (P63009 whole entry): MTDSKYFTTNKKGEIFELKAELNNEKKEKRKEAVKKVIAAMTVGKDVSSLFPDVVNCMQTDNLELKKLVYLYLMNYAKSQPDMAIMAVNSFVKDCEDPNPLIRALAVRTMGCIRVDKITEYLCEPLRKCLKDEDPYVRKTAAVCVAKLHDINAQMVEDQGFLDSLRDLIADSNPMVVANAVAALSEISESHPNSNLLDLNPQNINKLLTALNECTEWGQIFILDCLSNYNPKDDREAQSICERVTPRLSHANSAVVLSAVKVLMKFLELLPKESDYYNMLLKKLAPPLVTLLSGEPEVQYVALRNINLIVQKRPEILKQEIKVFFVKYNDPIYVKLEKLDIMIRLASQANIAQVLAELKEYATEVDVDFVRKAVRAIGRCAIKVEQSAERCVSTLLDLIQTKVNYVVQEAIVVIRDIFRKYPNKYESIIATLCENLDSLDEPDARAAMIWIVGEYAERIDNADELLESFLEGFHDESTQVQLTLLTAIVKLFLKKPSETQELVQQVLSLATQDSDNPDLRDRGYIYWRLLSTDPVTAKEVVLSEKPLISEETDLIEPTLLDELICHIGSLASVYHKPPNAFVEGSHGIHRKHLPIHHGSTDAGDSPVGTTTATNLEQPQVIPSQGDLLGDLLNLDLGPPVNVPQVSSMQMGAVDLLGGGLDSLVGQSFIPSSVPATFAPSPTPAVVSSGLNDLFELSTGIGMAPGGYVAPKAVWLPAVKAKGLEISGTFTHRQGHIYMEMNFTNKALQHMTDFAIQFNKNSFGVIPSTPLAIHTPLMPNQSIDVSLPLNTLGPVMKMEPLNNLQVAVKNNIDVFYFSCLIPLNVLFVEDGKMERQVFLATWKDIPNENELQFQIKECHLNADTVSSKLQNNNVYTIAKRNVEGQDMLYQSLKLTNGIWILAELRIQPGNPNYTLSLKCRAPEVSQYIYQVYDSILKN

effect of a mutation on the interaction | Variant
disrupting interaction | Y561A

Variants of: B2
Details: with dvl2_mouse Dvl2, Q60838

effect of a mutation on the interaction | Variant
disrupting interaction | MIGGLFIYNHKGEVLISRVYRDDIGRNAVDAFRVNVIHARQQVRSPVTNIARTSFFHVKRSNIWLAAVTKQNVNAAMVFEFLYKMCDVMAAYFGKISEENIKNNFVLIYELLDEILDFGYPQNSETGALKTFITQQGIKSQHQTKEEQSQITSQVTGQIGWRREGIKYRRNELFLDVLESVNLLMSPQGQVLSAHVSGRVVMKSYLSGMPECKFGMNDKIVIEKQGKGTADETSKSGKQSIAIDDCTFHQCVRLSKFDSERSISFIPPDGEFELMRYRTTKDIILPFRVIPLVREVGRTKLEVKVVIKSNFKPSLLAQKIEVRIPTPLNTSGVQVICMKGKAKYKASENAIVWKIKRMAGMKESQISAEIELLPTNDKKKWARPPISMNFEVPFAPSGLKVRYLKVFEPKLNYSDHDVIKAVRYIGRSGIYETRC [W421A]
decreasing interaction | MIGGLFIYNHKGEVLISRVYRDDIGRNAVDAFRVNVIHARQQVRSPVTNIARTSFFHVKRSNIWLAAVTKQNVNAAMVFEFLYKMCDVMAAYFGKISEENIKNNFVLIYELLDEILDFGYPQNSETGALKTFITQQGIKSQHQTKEEQSQITSQVTGQIGWRREGIKYRRNELFLDVLESVNLLMSPQGQVLSAHVSGRVVMKSYLSGMPACDFGMNDKIVIEKQGKGTADETSKSGKQSIAIDDCTFHQCVRLSKFDSERSISFIPPDGEFELMRYRTTKDIILPFRVIPLVREVGRTKLEVKVVIKSNFKPSLLAQKIEVRIPTPLNTSGVQVICMKGKAKYKASENAIVWKIKRMAGMKESQISAEIELLPTNDKKKWARPPISMNFEVPFAPSGLKVRYLDVAEPKLNYSDHDVIKWVRYIGRSGIYETRC [E211A;K213D;K405D;F407A]
decreasing interaction | MIGGLFIYNHKGEVLISRVYRDDIGRNAVDAFRVNVIHARQQVRSPVTNIARTSFFHVKRSNIWLAAVTKQNVNAAMVFEFLYKMCDVMAAYFGKISEENIKNNFVLIYELLDEILDFGYPQNSETGALKTFITQQGIKSQHQTKEEQSQITSQVTGQIGWRREGIKYRRNELFLDVLESVNLLMSPQGQVLSAHVSGRVVMKSYLSGMPACDFGMNDKIVIEKQGKGTADETSKSGKQSIAIDDCTFHQCVRLSKFDSERSISFIPPDGEFELMRYRTTKDIILPFRVIPLVREVGRTKLEVKVVIKSNFKPSLLAQKIEVRIPTPLNTSGVQVICMKGKAKYKASENAIVWKIKRMAGMKESQISAEIELLPTNDKKKWARPPISMNFEVPFAPSGLKVRYLDVFEPKLNYSDHDVIKWVRYIGRSGIYETRC [E211A;K213D;K405D]
decreasing interaction | MIGGLFIYNHKGEVLISRVYRDDIGRNAVDAFRVNVIHARQQVRSPVTNIARTSFFHVKRSNIWLAAVTKQNVNAAMVFEFLYKMCDVMAAYFGKISEENIKNNFVLIYELLDEILDFGYPQNSETGALKTFITQQGIKSQHQTKEEQSQITSQVTGQIGWRREGIKYRRNELFLDVLESVNLLMSPQGQVLSAHVSGRVVMKSYLSGMPECDFGMNDKIVIEKQGKGTADETSKSGKQSIAIDDCTFHQCVRLSKFDSERSISFIPPDGEFELMRYRTTKDIILPFRVIPLVREVGRTKLEVKVVIKSNFKPSLLAQKIEVRIPTPLNTSGVQVICMKGKAKYKASENAIVWKIKRMAGMKESQISAEIELLPTNDKKKWARPPISMNFEVPFAPSGLKVRYLDVFEPKLNYSDHDVIKWVRYIGRSGIYETRC [K213D;K405D]
